Experimental data published in patent US9415012B2, “Sustained-release composition containing peptides as active ingredient” (IPSEN PHARMA S.A.S., priority 2011, dated 2016).

Test: IE-HPLC analysis of rhGH deamidation before/after spray-drying
Assay type: physicochemical
Settings: 130° C.
Description: Recombinant human growth hormone in sodium carbonate buffer was dissolved in water. Sodium hyaluronate was present in the composition at a concentration of 2 mg/mL and rhGH at a concentration of 1 mg/mL. The weight ratio protein/sodium hyaluronate was equal to 0.5.
The composition was then spray dried with an inlet temperature of 130° C.
An ion-exchange high performance liquid chromatography (IE-HPLC) analysis was performed to evaluate the […] of rhGH and a size-exclusion chromatography high performance liquid chromatography (SEC-HPLC) analysis was performed to evaluate the aggregation of this protein.

For rhGH: recombinant human growth hormone, the “Stability in the spray-drying process” value was “degraded”.
